Consider four molecules from patent publication US20190031785A1 (COMPASS THERAPEUTICS, published 2019).

In general, Kd refers to the equilibrium constant for the complex coming apart.

Assay [1] has as its target T1, Recombinant human CD137 Fc fusion protein (Sino Biological) (human, UniProt Q07011 24-186).
T1 construct: not shown: Fc part of a bought fusion protein
Put plainly: BLI (ForteBio Octet); CD137 Fc on Protein A sensors, 100 nM construct; column 'Affinity (nM)'. The protocol: (§1) Antigen binding of MIAC constructs were analyzed using ForteBio Octet. […] All antigens were reconstituted in PBS at the final concentration of 0.25 ug/ul. […] Association proceeded by dipping sensors in 100 nM MIAC constructs for 5 minutes and disassociation occurred in blank kinetics buffer for 5 minutes. For CD3 epsilon binding, antigen was immobilized on Ni-NTA sensors; association was performed in 50 nM MIAC constructs. Binding data were analyzed using ForteBio Data Analysis 9.0 software.
A general note: Biolayer interferometry detects binding as a change in optical thickness at a sensor tip.

Assay [2] has as its target T2, Recombinant human PD-1 Fc fusion protein (Sino Biological) (human, UniProt Q15116 25-167).
T2 construct: not shown: Fc part of a bought fusion protein
Kind of assay: BLI (ForteBio Octet); antigen-Fc on Protein A sensors, construct in solution; NB: no binding detected. How it is done: as §1

Assay [3] concerns the target T3, Recombinant human Her2 Fc fusion protein (Sino Biological) (human, UniProt P04626 23-652).
T3 construct: not shown: Fc part of a bought fusion protein
Described as above. How it is done:
as §1

For assay [4], the target named is T2, Recombinant human PD-1 Fc fusion …. Kind of assay: BLI (ForteBio Octet); PD-1 Fc on Protein A sensors, 100 nM construct; column 'Affinity (nM)'. How it is done: as §1
Assay [5] addresses T1, Recombinant human CD137 Fc fusion …. Put plainly: ForteBio Octet bio-layer interferometry, sequential steps on one sensor: Her2 loading, blocking antibody, PID7, PD-1 (printed 'PI-1'), CD137.
Assay [6] shares this target. Kind of assay: BLI (ForteBio Octet); antigen-Fc on Protein A sensors, construct in solution; NB: no binding detected. How it is done: as §1
Assay [7] has as its target T2, Recombinant human PD-1 Fc fusion …. Kind of assay: ForteBio Octet bio-layer interferometry, sequential steps on one sensor: Her2 loading, blocking antibody, PID92, PD-1 (printed 'PI-1'), CD137.

T2 sequence (Q15116 25-167 limits assumed): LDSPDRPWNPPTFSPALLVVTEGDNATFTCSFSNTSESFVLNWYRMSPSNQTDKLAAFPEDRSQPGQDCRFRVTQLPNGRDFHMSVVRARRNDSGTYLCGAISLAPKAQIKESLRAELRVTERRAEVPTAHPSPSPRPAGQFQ

B1: PID-90 (monospecific anti-CD137; urelumab Fab domain, human IgG1) (antibody, V domains shown)
VH: QVQLQQWGAGLLKPSETLSLTCAVYGGSFSGYYWSWIRQSPEKGLEWIGEINHGGYVTYNPSLESRVTISVDTSKNQFSLKLSSVTAADTAVYYCARDYGPGNYDWYFDLWGRGTLVTVSS
VL: EIVLTQSPATLSLSPGERATLSCRASQSVSSYLAWYQQKPGQAPRLLIYDASNRATGIPARFSGSGSGTDFTLTISSLEPEDFAVYYCQQRSNWPPALTFGGGTKVEIKR
notes: also called PID90 (CD137)
With B1, the equilibrium dissociation constant (Kd) in assay [1] is 0.7 nM. In addition, the binding result in assay [2] and in assay [3] was “no binding (tested: 100 nM)” throughout.

B2: PID-7 (bispecific Her2/PD-1 MIAC; pembrolizumab IgG1 with trastuzumab scFv at the heavy chain C-termini) (bispecific antibody)
heavy: not shown
light: EIVLTQSPATLSLSPGERATLSCRASKGVSTSGYSYLHWYQQKPGQAPRLLIYLASYLESGVPARFSGSGSGTDFTLTISSLEPEDFAVYYCQHSRDLPLTFGGGTKVEIKRTVAAPSVFIFPPSDEQLKSGTASVVCLLNNFYPREAKVQWKVDNALQSGNSQESVTEQDSKDSTYSLSSTLTLSKADYEKHKVYACEVTHQGLSSPVTKSFNRGEC
notes: also called α-Her2/α-PD-1
With B2, the dissociation constant (Kd) in assay [4] was found to be 0.12 nM. Further, the binding result in assay [5] was “no binding”.

B3: PID-2 (monospecific anti-PD-1; pembrolizumab Fab domain, human IgG1) (antibody, V domains shown)
VH: QVQLVQSGVEVKKPGASVKVSCKASGYTFTNYYMYWVRQAPGQGLEWMGGINPSNGGTNFNEKFKNRVTLTTDSSTTTAYMELKSLQFDDTAVYYCARRDYRFDMGFDYWGQGTTVTVSS
VL: EIVLTQSPATLSLSPGERATLSCRASKGVSTSGYSYLHWYQQKPGQAPRLLIYLASYLESGVPARFSGSGSGTDFTLTISSLEPEDFAVYYCQHSRDLPLTFGGGTKVEIKR
notes: also called PID2 (PD-1)
On to B3, for which the binding result in assay [6] and in assay [3] was “no binding (tested: 100 nM)” in each case.

B4: PID-92 (bispecific Her2/CD137 MIAC; urelumab IgG1 with trastuzumab scFv at the heavy chain C-termini) (bispecific antibody)
heavy: not shown
light: not shown
notes: also called α-Her2/α-CD137 MIAC; PID92 [Her2/CD137]
As for B4, the dissociation constant Kd in assay [1] was 0.23 nM. In assay [7], the binding result is reported as “no binding”.
